Legend:
[1] = biological target: T1, human PD-1 on engineered CHO-S cells (W305-CHO-S.hPro1.C6) (human, UniProt Q15116 25-288); assay: competitive FACS on human PD-1 CHO-S cells with 5 ug/ml PD-L1 ECD.mFc (competitor: PD-L1)
T1 construct: whole, on cells; also called human PD-1 engineered cells; PD-1+ cells
Protocol: (§1) In order to test whether the bispecific antibodies could block hPD-L1 binding to hPD-1 protein, a competitive FACS was conducted. […] Plates were incubated at 4° C. for 1 hour. After wash, the binding of W315-hPro1.ECD.mFc to cell expressive human PD-1 was detected by FITC-labeled goat anti-mouse antibody (abcam 98716 1:125). The competition binding of antibodies to the cells was tested by flow cytometry and the mean fluorescence intensity (MFI) was analyzed by FlowJo.

[2] = biological target: T2, ECD of human PD-1 (SPR analyte) (human, UniProt Q15116 25-170); assay: SPR (Biacore T200), antibody captured by anti-human Fc, PD-1 ECD as analyte
T2 construct: extracellular domain; the SPR method only says ECD of PD-1; also called W305-hPro1.ECD.His
T2 sequence (Q15116 25-170): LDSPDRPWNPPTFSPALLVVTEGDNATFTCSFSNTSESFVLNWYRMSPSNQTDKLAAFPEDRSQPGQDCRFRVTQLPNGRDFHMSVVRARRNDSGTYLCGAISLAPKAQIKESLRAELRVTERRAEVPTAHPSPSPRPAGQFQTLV
Protocol: (§2) SPR technology was used to measure the on-rate constant (ka) and off-rate constant (kd) of the antibodies to ECD of CTLA-4 or PD-1. The affinity constant (KD) was consequently determined.
(§3) Biacore T200, Series S Sensor Chip CM5, Amine Coupling Kit, and 10×HBS-EP were purchased from GE Healthcare. Goat anti-human IgG Fc antibody was purchased from Jackson ImmunoResearch Lab (catalog number 109-005-098). In immobilization step, the activation buffer was prepared by mixing 400 mM EDC and 100 mM NHS immediately prior to injection. The CM5 sensor chip was activated for 420 s with the activation buffer. 30 μg/mL of goat anti-human IgG Fcγ antibody in 10 mM NaAc (pH 4.5) was then injected to Fc1-Fc4 channels for 200 s at a flow rate of 5 μL/min. The chip was deactivated by 1 M ethanolamine-HCl (GE). Then the antibodies were captured on the chip. Briefly, 4 μg/mL antibodies in running buffer (HBS-EP+) was injected individually to Fc3 channel for 30 s at a flow rate of […]. […] Regeneration buffer (10 mM Glycine pH 1.5) was injected at 10 μL min for 30 s following every dissociation phase.

hCTLA4.ECD.hFc [3] = biological target: T3, hCTLA4.ECD.hFc (human); assay: dual-binding ELISA (hCTLA4.ECD.hFc coated, detected with hPD-1-ECD.Biotin), sample kept 7 d in human serum at 37 C
T3 construct: ECD fused to a human Fc; not biotinylated; also called Human CTLA-4: W316-hPro1.ECD.hFc (in house)
T3 sequence (P16410 36-161): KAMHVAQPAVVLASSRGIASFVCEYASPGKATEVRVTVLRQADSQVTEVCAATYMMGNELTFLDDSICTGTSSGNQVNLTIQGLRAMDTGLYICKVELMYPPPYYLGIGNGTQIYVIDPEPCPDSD
Protocol: (§4) The antibodies were incubated in freshly isolated human serum at 37° C. On indicated time points, an aliquot of serum treated sample was removed from the incubator and snap frozen in liquid nitrogen, and then stored at −80° C. until ready for a dual-binding ELISA test. The frozen samples were quickly thawed immediately prior to the stability test. Briefly, plates were pre-coated with 0.5 μg/mL of hCTLA4.ECD.hFc (in house) at 4° C. overnight. After 1-hour blocking, the testing antibodies were added to the plates at various concentrations. The plates were incubated at ambient temperature for 1 hour. Following the incubation, the plates were washed three times with 300 μL per well of PBS containing 0.5% (v/v) Tween 20. Then 0.1 μg/ml hPD-1-ECD.Biotin was added to plates and the mixture was incubated for 1 hour. After washing the plates three times, Streptavidin-HRP (Lifetechnologies, #SNN1004) (1:20000 diluted) was added and incubated on the plates for 1 hour at room temperature. After washing six times with 300 μL per well of PBS containing 0.5% (v/v) Tween 20, 100 μL tetramethylbenzidine (TMB) substrate is added for the detection per well. The reaction was stopped after approximately 5 minutes by addition of 100 μL per well of 2 M HCl. The absorbance of the wells was measured at 450 nm with a multiwall plate reader (SpectraMax® M5e). […]

hCTLA4.ECD.hFc [4] = biological target: T3, hCTLA4.ECD.hFc; assay: dual-binding ELISA (hCTLA4.ECD.hFc coated, detected with hPD-1-ECD.Biotin), sample kept 1 d in human serum at 37 C
Protocol: as §4

hCTLA4.ECD.hFc [5] = biological target: T3, hCTLA4.ECD.hFc; assay: dual-binding ELISA (hCTLA4.ECD.hFc coated, detected with hPD-1-ECD.Biotin), sample kept 14 d in human serum at 37 C
Protocol: as §4

hCTLA4.ECD.hFc [6] = biological target: T3, hCTLA4.ECD.hFc; assay: dual-binding ELISA (hCTLA4.ECD.hFc coated, detected with hPD-1-ECD.Biotin), sample kept 4 d in human serum at 37 C
Protocol: as §4

[7] = biological target: T2, ECD of human PD-1 (SPR analyte); assay: SPR (Biacore), antibody captured as ligand on an anti-human IgG Fc chip, PD-1 ECD as analyte
Protocol: as §2, §3

[8] = biological target: T4, cynomolgus PD-1 on engineered 293F cells (W305-293F.cynoPro1.FL.pool) (cynomolgus); assay: FACS binding to cynomolgus PD-1 engineered cells
T4 construct: whole, on cells; also called cynomolgus PD-1 engineered cells
Protocol: 4.0-fold titrated Abs with 1% BSA DPBS from 40 μg/ml to 0.0001526 μg/ml were added to the cells. Plates were incubated at 4° C. for 1 hour. After wash, […] 1:150 diluted PE-labeled goat anti-human antibody (Jackson 109-115-098) was added to each well and the plates were incubated at 4° C. for 1 hour. The binding of the antibodies onto the cells was tested by flow cytometry and the mean fluorescence intensity (MFI) was analyzed by FlowJo.

[9] = biological target: T1, human PD-1 on engineered CHO-S cells …; assay: FACS competition: blocks human PD-L1 protein (W315-hPro1.ECD.mFc) binding to human PD-1 engineered cells
Protocol: as §1

T1 sequence (Q15116 25-288, change not shown): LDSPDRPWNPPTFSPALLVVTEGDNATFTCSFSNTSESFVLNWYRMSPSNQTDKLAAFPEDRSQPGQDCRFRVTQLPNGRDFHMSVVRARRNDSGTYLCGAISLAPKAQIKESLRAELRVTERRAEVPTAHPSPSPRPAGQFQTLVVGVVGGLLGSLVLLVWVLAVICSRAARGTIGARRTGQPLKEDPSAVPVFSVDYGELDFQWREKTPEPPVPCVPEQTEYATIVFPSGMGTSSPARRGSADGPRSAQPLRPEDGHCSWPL

B1: W3248-U6T5.G25-1.uIgG4.SP, bispecific anti-PD-1 x CTLA-4 (bispecific antibody)
heavy: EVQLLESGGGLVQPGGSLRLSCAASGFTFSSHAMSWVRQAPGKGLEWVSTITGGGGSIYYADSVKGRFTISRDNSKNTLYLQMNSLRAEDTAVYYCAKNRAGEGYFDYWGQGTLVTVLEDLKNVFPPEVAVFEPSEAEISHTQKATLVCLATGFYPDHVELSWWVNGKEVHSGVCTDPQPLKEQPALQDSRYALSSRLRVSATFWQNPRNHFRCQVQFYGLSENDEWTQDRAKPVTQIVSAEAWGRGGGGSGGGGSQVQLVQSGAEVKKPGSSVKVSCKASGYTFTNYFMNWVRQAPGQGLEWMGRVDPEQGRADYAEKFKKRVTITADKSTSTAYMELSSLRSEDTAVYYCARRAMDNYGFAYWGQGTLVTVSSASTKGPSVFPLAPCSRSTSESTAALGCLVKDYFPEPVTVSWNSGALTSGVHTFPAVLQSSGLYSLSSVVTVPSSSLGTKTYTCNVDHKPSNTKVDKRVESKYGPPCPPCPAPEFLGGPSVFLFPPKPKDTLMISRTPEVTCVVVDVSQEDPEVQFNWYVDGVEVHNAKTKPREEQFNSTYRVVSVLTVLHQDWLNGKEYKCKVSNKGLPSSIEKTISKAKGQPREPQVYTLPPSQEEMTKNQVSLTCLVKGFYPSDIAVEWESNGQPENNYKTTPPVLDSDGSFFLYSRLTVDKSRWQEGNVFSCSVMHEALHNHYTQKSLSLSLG
light 1: SYELTQPLSVSVALGQTARITCGGDNIGNKDVHWYQQKPGQAPVLVIYRDSNRPSGIPEGFSGSNSGNTATLTISRAQAGDEADYYCQVWDSIWVFGGGTKLTVLPDIQNPDPAVYQLRDSKSSDKSVCLFTDFDSQTQVSQSKDSDVYITDKCVLDMRSMDFKSNSAVAWSQKSDFACANAFQNSIIPEDTFFPSPESS
light 2: EIVLTQSPDFQSVTPKEKVTITCSANSALSYMYWYQQKPDQSPKLWVHGTSNLASGVPSRFSGSGSGTDFTLTINSLEAEDAATYYCHHWSNTQWTFGGGTKVEIKRTVAAPSVFIFPPSDEQLKSGTASVVCLLNNFYPREAKVQWKVDNALQSGNSQESVTEQDSKDSTYSLSSTLTLSKADYEKHKVYACEVTHQGLSSPVTKSFNRGEC
notes: IgG4 (S228P); also called WBP3248-U6T5.G25-1-uIgG4.SP; U6T5.G25.IgG4
IC50 [1]: 1920 pM
Kd [2]: 1320 pM
EC50 (hCTLA4.ECD.hFc [3]): 101 pM
EC50 (hCTLA4.ECD.hFc [4]): 97.8 pM
EC50 (hCTLA4.ECD.hFc [5]): 98.9 pM
EC50 (hCTLA4.ECD.hFc [6]): 94.4 pM
koff [7]: 0.000844 s⁻¹
kon [7]: 642000 M⁻¹ s⁻¹
EC50 [8]: 5130 pM
Top(MFI) [8]: 68100 MFI
Inhibition % [9]: 94.4%

B2: W3248-U6T1.G25R-1.uIgG4.SP, bispecific anti-PD-1 x CTLA-4 (bispecific antibody)
heavy: EVQLLESGGGLVQPGGSLRLSCAASGFTFSSHAMSWVRQAPGKGLEWVSTITGGGGSIYYADSVKGRFTISRDNSKNTLYLQMNSLRAEDTAVYYCAKNRAGEGYFDYWGQGTLVTVSSASTKGPSVFPLAPCSRSTSESTAALGCLVKDYFPEPVTVSWNSGALTSGVHTFPAVLQSSGLYSLSSVVTVPSSSLGTKTYTCNVDHKPSNTKVDKRVGGGGSGGGGSQVQLVESGGGVVQPGRSLRLSCAASGFTFSSYTMHWVRQAPGKGLEWVTFISYDGNNKYYADSVKGRFTISRDNSKNTLYLQMNSLRAEDTAIYYCARTGWLGPFDYWGQGTLVTVLEDLKNVFPPEVAVFEPSEAEISHTQKATLVCLATGFYPDHVELSWWVNGKEVHSGVCTDPQPLKEQPALQDSRYALSSRLRVSATFWQNPRNHFRCQVQFYGLSENDEWTQDRAKPVTQIVSAEAWGRYGPPCPPCPAPEFLGGPSVFLFPPKPKDTLMISRTPEVTCVVVDVSQEDPEVQFNWYVDGVEVHNAKTKPREEQFNSTYRVVSVLTVLHQDWLNGKEYKCKVSNKGLPSSIEKTISKAKGQPREPQVYTLPPSQEEMTKNQVSLTCLVKGFYPSDIAVEWESNGQPENNYKTTPPVLDSDGSFFLYSRLTVDKSRWQEGNVFSCSVMHEALHNHYTQKSLSLSLG
light 1: SYELTQPLSVSVALGQTARITCGGDNIGNKDVHWYQQKPGQAPVLVIYRDSNRPSGIPEGFSGSNSGNTATLTISRAQAGDEADYYCQVWDSIWVFGGGTKLTVLGQPKAAPSVTLFPPSSEELQANKATLVCLISDFYPGAVTVAWKADSSPVKAGVETTTPSKQSNNKYAASSYLSLTPEQWKSHKSYSCQVTHEGSTVEKTVAPTECS
light 2: not shown
notes: IgG4 (S228P); also called U6T1.G25R.IgG4
IC50 [1]: 1670 pM
Kd [2]: 1240 pM
EC50 (hCTLA4.ECD.hFc [3]): 145 pM
EC50 (hCTLA4.ECD.hFc [4]): 148 pM
EC50 (hCTLA4.ECD.hFc [5]): 156 pM
EC50 (hCTLA4.ECD.hFc [6]): 141 pM
koff [7]: 0.000675 s⁻¹
kon [7]: 542000 M⁻¹ s⁻¹
EC50 [8]: 4710 pM
Top(MFI) [8]: 66800 MFI
Inhibition % [9]: 98.6%

From patent publication US20240124586A1 (WUXI BIOLOGICS IRELAND, published 2024)
